This passage reports koff results from article PMC12638815 (2025).

Changes are numbered by the printed parent chain.

Sequences and labels used below:
B1: VHH B10 (VHH)
VHH: QVQLVESGGGLVQAGDSLRLSCAASGRTFSSYAMGWFRQALGKEREFVAVISGSGTSTYYTDSVKGRFTISRDNAKNTVYLQMNSLKPEDTAVYYCARAKGFSTIYNQDEGRYDYWGQGTQVTVSS
B2: VHH B09 (VHH)
VHH: QVQLVESGGGLVQAGGSLRLSCATSRSTFSSNTIGWYRQAPGKQRELVASISTSGNTYYADSVKGRFAISRDNAENTVYLQMNSLKPEDTAVYYCNTPSRRISNFWGQGTQVTVSS
B3: VHH B07 (VHH)
VHH: B2 VHH with Q1E, V5Q, E6A, T24A, S31T, A60P

In this assay the target is hACE2 peptidase domain fused to a human Fc from IgG (human). The assay can be described thus: BLI. (BLI is a label-free optical method that tracks binding on a fibre tip over time.)
Chain of hACE2 peptidase domain fused to a human Fc from IgG (human) (Q9BYF1 19-615): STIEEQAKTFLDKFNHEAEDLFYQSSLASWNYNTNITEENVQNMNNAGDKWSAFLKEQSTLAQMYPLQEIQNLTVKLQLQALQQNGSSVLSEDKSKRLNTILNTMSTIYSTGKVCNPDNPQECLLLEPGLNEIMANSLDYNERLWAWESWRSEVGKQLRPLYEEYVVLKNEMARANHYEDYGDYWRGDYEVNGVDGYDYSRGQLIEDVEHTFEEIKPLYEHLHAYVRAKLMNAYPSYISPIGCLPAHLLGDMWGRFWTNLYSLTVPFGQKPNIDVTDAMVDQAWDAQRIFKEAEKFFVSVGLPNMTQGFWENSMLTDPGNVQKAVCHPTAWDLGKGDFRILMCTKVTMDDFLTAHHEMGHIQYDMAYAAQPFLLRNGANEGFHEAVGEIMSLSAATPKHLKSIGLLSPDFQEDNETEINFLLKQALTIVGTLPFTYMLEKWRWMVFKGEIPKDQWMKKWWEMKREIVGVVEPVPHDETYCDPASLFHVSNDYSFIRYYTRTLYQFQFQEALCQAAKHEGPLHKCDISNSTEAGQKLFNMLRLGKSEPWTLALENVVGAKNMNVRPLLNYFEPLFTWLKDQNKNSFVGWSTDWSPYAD
As for B1, the koff is 0.000411 s⁻¹.
Next, B2: 0.000106 s⁻¹; B3: 0.0001 s⁻¹.

In general, koff refers to the first-order rate constant of dissociation.
